Measured values from IntAct's records for PubMed 16980972.

Target: asf1a_human ASF1A (UniProt Q9Y294)
Sequence (Q9Y294 whole entry): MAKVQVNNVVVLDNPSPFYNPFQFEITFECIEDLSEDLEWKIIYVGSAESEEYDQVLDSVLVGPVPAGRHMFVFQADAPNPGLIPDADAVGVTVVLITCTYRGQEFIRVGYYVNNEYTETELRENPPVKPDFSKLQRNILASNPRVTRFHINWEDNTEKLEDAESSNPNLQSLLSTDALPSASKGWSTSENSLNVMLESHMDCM

Chromatin assembly factor 1 subunit B (Homo sapiens) (from UniProt Q13112) R483A;R499A
effect of a mutation on the interaction: disrupting interaction
